Assay in all cases: cell-based or functional assay
The target in test [1] is CDK7/cyclinH/MAT1(h) (human) (UniProt P50613).
Test [2] addresses T1, SAPK4(h) (human) (UniProt O15264).
T1 sequence (looked up): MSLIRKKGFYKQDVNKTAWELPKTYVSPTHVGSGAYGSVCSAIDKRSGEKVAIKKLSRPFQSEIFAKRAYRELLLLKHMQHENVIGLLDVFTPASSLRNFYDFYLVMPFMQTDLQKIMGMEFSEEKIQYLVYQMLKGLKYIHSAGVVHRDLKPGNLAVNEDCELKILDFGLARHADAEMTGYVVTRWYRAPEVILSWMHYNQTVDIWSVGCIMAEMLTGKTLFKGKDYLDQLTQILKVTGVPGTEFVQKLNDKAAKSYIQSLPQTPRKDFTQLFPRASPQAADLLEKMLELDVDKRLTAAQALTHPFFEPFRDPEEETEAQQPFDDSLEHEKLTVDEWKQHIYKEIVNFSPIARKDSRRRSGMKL

In test [3] the target is Plk3(h) (human) (UniProt Q9H4B4).
Sequence of Plk3(h) (human) (Q9H4B4 58-340 limits assumed): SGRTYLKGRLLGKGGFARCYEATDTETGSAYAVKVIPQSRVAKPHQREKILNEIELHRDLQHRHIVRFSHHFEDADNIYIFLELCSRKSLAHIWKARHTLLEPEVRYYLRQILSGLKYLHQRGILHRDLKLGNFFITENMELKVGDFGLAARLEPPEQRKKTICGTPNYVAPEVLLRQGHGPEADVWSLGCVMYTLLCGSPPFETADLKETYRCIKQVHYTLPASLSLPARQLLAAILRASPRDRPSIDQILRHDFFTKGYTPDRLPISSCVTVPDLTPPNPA
Test [4] concerns the target T2, ULK2(h) (human) (UniProt Q8IYT8).
T2 sequence (looked up): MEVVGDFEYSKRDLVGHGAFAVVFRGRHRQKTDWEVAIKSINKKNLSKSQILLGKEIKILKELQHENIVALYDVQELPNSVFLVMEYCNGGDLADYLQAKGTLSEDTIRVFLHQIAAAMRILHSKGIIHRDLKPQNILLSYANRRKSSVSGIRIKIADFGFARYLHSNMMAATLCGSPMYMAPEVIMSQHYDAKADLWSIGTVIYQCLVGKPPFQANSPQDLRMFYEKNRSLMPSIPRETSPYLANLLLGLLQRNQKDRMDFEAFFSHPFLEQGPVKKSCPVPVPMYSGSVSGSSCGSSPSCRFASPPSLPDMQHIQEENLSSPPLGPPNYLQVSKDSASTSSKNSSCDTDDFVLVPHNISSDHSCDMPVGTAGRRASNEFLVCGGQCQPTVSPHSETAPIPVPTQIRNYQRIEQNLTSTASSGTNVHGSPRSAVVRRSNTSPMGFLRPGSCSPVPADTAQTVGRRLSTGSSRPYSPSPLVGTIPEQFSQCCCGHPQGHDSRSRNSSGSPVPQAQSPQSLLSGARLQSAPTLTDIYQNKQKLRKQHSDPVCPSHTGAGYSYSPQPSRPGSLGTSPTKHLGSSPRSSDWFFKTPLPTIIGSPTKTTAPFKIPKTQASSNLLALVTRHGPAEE

Test [5] addresses CHK2(R145W)(h) (human) (UniProt O96017).
In test [6] the target is PKBγ(h) (human) (UniProt Q9Y243).
Sequence of PKBγ(h) (human) (Q9Y243 whole entry): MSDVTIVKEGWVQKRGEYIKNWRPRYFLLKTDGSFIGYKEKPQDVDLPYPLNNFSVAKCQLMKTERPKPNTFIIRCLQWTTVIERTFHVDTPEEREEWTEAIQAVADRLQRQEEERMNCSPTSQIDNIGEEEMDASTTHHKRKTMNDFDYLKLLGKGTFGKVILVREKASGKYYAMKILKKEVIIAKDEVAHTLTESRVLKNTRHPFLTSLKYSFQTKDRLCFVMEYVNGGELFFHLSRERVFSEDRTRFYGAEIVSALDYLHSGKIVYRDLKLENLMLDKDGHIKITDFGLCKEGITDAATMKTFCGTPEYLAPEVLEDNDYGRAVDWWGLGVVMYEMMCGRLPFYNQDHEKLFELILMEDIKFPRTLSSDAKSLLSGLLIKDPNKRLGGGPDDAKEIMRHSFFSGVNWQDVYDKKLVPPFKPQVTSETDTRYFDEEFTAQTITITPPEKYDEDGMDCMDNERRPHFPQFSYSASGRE
The target of test [7] is CDK5/p25(h) (human) (UniProt Q00535).
The target in test [8] is CDK3/cyclinE(h) (human) (UniProt Q00526).
The target in test [9] is CK1δ(h) (human) (UniProt P48730).
Sequence of CK1δ(h) (human) (P48730 1-294, stated change not applied): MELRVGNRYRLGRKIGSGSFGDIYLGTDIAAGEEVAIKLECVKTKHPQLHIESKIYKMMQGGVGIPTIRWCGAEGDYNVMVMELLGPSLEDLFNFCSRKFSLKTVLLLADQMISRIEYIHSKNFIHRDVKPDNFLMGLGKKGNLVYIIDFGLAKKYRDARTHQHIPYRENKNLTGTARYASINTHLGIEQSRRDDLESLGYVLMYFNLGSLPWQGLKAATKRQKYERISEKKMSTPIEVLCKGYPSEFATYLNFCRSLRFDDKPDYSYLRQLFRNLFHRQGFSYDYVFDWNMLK
Test [10] deals with T3, SGK2(h) (human) (UniProt Q9HBY8).
T3 sequence (looked up): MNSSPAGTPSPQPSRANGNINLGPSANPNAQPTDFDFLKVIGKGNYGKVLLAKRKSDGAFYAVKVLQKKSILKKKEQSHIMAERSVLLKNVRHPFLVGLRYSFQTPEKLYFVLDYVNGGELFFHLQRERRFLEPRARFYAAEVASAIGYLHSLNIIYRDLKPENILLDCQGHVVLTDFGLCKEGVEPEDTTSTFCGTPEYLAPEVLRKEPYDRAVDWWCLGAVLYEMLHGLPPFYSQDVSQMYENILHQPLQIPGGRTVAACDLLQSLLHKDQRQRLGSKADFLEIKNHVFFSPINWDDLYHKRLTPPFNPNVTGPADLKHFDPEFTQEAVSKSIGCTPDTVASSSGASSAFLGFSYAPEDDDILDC

Test [11] concerns the target LIMK1(h) (human) (UniProt P53667).
For test [12], the target named is T4, TSSK2(h) (human) (UniProt Q96PF2).
T4 sequence (looked up): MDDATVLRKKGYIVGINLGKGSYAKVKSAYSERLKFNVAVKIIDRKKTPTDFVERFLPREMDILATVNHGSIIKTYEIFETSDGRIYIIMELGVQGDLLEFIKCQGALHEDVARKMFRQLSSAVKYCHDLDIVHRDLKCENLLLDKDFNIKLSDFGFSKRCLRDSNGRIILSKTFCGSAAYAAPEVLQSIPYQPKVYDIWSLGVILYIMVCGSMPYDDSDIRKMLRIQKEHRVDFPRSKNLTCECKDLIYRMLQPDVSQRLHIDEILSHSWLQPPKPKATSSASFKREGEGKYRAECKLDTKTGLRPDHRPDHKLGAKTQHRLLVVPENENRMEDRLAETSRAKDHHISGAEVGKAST

Test [13] has as its target T5, TAO1(h) (human) (UniProt Q7L7X3).
T5 sequence (looked up): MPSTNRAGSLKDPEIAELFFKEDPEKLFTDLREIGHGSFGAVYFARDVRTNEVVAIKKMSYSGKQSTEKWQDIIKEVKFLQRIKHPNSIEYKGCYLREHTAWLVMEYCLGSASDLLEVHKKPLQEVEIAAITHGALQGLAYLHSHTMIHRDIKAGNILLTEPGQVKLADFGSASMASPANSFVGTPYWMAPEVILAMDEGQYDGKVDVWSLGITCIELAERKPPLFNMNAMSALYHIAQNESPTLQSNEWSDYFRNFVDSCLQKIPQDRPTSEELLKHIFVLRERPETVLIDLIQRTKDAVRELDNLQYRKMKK

Sequence of LIMK1(h) (human) (P53667 285-638 limits assumed): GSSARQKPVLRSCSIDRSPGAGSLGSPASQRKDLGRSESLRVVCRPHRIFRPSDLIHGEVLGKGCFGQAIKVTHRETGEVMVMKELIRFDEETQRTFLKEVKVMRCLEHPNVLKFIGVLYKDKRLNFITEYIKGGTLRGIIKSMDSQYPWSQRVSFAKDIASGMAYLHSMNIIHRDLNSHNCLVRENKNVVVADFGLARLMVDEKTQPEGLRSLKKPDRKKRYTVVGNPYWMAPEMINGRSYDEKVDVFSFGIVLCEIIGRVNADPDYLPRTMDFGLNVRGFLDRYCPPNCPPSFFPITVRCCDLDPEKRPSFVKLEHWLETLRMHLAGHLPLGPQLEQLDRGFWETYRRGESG
Sequence of CDK7/cyclinH/MAT1(h) (human) (P50613 whole entry, chain 1 of 3): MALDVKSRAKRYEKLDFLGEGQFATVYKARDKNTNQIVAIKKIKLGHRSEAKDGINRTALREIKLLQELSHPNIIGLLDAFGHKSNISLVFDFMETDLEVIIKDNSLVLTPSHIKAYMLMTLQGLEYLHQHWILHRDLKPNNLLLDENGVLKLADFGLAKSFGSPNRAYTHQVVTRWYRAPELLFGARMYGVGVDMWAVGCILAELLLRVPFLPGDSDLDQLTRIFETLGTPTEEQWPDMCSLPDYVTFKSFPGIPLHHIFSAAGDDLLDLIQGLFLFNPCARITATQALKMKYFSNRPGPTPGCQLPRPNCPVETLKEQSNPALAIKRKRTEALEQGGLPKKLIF
Sequence of CDK7/cyclinH/MAT1(h) (human) (P51946 whole entry, chain 2 of 3, further chain): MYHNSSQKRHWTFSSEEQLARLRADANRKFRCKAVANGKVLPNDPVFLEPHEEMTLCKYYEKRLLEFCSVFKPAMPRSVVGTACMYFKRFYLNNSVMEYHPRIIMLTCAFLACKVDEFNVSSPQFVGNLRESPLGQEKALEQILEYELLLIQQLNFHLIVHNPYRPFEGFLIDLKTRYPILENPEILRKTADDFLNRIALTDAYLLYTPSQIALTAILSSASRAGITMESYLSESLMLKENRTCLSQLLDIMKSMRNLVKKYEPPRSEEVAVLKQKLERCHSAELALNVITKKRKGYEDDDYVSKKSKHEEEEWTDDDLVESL
Sequence of CDK7/cyclinH/MAT1(h) (human) (P51948 whole entry, chain 3 of 3, further chain): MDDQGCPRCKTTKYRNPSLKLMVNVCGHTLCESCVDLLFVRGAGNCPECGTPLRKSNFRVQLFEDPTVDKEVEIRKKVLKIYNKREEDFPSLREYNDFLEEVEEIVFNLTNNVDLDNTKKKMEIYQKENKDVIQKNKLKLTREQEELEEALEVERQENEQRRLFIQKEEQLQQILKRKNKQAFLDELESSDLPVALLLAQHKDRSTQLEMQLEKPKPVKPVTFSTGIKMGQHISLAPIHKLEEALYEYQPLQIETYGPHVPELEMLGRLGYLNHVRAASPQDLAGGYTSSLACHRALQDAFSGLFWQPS
Sequence of CHK2(R145W)(h) (human) (O96017 5-543 R145W limits assumed): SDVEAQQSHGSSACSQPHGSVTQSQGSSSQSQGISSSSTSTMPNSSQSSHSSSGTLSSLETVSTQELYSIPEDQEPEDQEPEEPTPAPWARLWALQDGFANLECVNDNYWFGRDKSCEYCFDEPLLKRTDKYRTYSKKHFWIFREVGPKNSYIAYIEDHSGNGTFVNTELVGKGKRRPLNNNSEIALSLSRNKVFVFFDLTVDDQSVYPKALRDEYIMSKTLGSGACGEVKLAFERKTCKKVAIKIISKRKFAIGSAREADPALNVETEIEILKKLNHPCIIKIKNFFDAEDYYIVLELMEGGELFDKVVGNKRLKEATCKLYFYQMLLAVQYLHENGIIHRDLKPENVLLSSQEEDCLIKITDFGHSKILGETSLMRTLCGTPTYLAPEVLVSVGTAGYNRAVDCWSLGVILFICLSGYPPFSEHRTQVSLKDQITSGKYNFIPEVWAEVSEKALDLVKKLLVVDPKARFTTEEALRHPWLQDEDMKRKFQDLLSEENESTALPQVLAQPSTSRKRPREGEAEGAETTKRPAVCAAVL

Take MMI-0500 (peptide): the % activity, 100 µM in test [1] turned out to be 15%; in test [2], 48%; in test [3], 122%; in test [4], 124%; in [5], 3%; in [6], 20%. In addition, the % activity, 100 µM in test [7] was 66%; in test [8], 8%; in test [9], 78%; in [10] it was -1%; in [11] it was 87%; in [12], 92%. Moreover, the % activity, 100 µM in test [13] came to 24%.

For the origin of these results see patent US20140072613A1, “Compositions and Methods for Treating Cutaneous Scarring” (priority 2012, published 2014).
